Substrate in this series: O=C(O)C(=O)Cc1ccccc1
The series is described as follows: purified protein. Type of series: biochemical, Saccharomyces cerevisiae. Conditions: ThDP, Mg2+.

Where a chain is given by its changes, count along the chain named. Numbers in names are those of the source.

B1: Phenylpyruvate decarboxylase Aro10p (Aro10p^HJ) (Saccharomyces cerevisiae S288C; A377V/K527R) (protein)
chain: MAPVTIEKFVNQEERHLVSNRSATIPFGEYIFKRLLSIDTKSVFGVPGDFNLSLLEYLYSPSVESAGLRWVGTCNELNAAYAADGYSRYSNKIGCLITTYGVGELSALNGIAGSFAENVKVLHIVGVAKSIDSRSSNFSDRNLHHLVPQLHDSNFKGPNHKVYHDMVKDRVACSVAYLEDIETACDQVDNVIRDIYKYSKPGYIFVPADFADMSVTCDNLVNVPRISQQDCIVYPSENQLSDIINKITSWIYSSKTPAILGDVLTDRYGVSNFLNKLICKTGIWNFSTVMGKSVIDESNPTYMGQYNGKEGLKQVYEHFELCDLVLHFGVDINEINNGHYTFTYKPNAKIIQFHPNYIRLVDTRQGNEQMFKGINFVPILKELYKRIDVSKLSLQYDSNVTQYTNETMRLEDPTNGQSSIITQVHLQKTMPKFLNPGDVVVCETGSFQFSVRDFAFPSQLKYISQGFFLSIGMALPAALGVGIAMQDHSNAHINGGNVKEDYKPRLILFEGDGAAQMTIQELSTILRCNIPLEVIIWNNNGYTIERAIMGPTRSYNDVMSWKWTKLFEAFGDFDGKYTNSTLIQCPSKLALKLEELKNSNKRSGIELLEVKLGELDFPEQLKCMVEAAALKRNKK
By Km is commonly meant the concentration of substrate that gives half-maximal velocity. The Vmax is the rate approached at saturating substrate. By kcat/Km is commonly meant the second-order rate constant that governs catalysis at low substrate concentration. For the protein B1, the Michaelis constant (Km) was determined as 86.36 ± 6.18 µM, the maximum rate (Vmax) is 2.11 µmol/min/mg and the kcat/Km was 595000 ± 33500 M⁻¹ s⁻¹.

B2: Phenylpyruvate decarboxylase Aro10p (Aro10p^S288C) (Saccharomyces cerevisiae S288C) (protein)
chain: B1 chain with V377A, R527K
On to B2, for which the Km was found to be 102.24 ± 2.15 µM, the maximal velocity (Vmax) was found to be 2.26 µmol/min/mg and the kcat/Km came to 597000 ± 20500 M⁻¹ s⁻¹.
